The target in one test is T1, hsGLUT4 Y309A (human, UniProt P14672 1-509).
T1 sequence: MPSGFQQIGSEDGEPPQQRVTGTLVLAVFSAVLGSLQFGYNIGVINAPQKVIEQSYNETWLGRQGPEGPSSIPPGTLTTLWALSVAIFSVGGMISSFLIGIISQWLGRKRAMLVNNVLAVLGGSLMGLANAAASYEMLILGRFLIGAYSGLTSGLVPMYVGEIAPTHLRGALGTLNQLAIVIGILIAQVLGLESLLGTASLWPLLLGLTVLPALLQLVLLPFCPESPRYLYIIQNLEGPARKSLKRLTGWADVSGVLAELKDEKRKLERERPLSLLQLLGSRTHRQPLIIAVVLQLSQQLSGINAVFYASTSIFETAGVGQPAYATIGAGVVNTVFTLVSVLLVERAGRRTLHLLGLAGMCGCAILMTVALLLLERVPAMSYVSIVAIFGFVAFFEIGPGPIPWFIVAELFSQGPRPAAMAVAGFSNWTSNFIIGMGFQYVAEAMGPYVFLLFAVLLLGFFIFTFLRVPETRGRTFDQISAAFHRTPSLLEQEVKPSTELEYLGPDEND
As to the kind of experiment: flow cytometry, alanine-scan library in HEK-293T. The method, boiled down:
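HEK-293T cells expressing individual GLUT4 alanine mutants were stained 48 h post-transfection with anti-GLUT4 scFv MAbs (2 μg/ml), then biotinylated secondary and streptavidin-PerCP, and read by high-throughput flow cytometry. Where used, cytochalasin B (10 uM final) was given for 30 min before and during primary antibody staining.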

The target in the next test is T2, hsGLUT4 Y309I (human, UniProt P14672 1-509).
T2 construct: The running text prints 'Y3091'; also called Y3091 (as printed in the running text); outward-open lock mutant
T2 sequence: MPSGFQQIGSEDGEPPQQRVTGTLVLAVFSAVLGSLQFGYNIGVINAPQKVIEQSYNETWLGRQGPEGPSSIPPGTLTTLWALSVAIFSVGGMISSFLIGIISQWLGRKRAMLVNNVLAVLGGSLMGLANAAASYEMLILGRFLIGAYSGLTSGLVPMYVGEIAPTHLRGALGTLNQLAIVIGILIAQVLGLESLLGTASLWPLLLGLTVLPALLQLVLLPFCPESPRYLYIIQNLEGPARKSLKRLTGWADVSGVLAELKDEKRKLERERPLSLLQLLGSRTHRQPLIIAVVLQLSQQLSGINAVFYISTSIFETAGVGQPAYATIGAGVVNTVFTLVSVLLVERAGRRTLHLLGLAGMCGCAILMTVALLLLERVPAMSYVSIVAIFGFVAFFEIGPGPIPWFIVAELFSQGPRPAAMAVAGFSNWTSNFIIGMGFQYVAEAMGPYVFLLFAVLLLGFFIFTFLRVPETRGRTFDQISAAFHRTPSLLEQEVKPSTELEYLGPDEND
As to the kind of experiment: flow cytometry, mutant in HEK-293T.

The next test concerns the target T3, hsGLUT4 E345Q (human, UniProt P14672 1-509).
T3 construct: also called inward-open lock mutant
T3 sequence: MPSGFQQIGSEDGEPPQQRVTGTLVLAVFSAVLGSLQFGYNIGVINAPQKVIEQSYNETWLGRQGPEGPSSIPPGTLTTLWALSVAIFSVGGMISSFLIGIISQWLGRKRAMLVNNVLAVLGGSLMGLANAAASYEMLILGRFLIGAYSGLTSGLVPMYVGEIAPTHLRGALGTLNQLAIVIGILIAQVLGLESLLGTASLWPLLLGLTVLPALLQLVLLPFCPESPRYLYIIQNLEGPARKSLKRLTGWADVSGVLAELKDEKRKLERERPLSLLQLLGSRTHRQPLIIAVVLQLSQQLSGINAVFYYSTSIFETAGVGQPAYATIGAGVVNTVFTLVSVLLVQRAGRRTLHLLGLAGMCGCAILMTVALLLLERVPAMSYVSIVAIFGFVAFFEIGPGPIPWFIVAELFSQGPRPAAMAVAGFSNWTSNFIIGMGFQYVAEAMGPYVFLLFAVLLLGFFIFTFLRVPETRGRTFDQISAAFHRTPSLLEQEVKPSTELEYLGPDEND
In words: flow cytometry, mutant in HEK-293T.

Test [1] concerns the target T4, human GLUT4 (hsGLUT4), wild type (UniProt P14672 1-509).
T4 chain: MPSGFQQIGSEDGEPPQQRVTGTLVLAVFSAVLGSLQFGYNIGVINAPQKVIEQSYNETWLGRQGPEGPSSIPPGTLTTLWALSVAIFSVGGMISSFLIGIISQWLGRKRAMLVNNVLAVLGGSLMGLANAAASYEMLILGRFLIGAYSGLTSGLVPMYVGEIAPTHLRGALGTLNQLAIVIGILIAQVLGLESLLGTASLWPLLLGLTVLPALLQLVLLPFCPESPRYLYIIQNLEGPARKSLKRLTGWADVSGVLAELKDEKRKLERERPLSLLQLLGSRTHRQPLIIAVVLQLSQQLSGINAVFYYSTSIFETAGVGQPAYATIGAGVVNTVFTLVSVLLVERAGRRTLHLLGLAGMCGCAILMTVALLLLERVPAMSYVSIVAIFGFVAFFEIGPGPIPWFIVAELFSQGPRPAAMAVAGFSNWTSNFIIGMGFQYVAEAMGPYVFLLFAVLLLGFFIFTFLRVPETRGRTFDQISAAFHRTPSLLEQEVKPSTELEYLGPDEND
As to the kind of experiment: BLI; avid.

With 1F8 (antibody), the results for the % of binding to wild type GLUT4 in the test with hsGLUT4 Y309A, with hsGLUT4 Y309I and with hsGLUT4 E345Q were 75%, 101% and 91%, respectively.

B1: AB101 (scFv)
scFv: ALTQPSSVSANPGETVKITCSGSSNSYGWYQQKSPGSAPVTVIYYNDKRPSDIPSRFSGSKSDSTHTLTITGVRAEDEAVYFCGSYDSTYVGIFGAGTTLTVLGQSSRSSGGGGSSGGGGSAVTLDESGGGLQTPGGTLSLVCKASGFTFSSNAMGWVRQAPGKGLEWVAGISSDGRYTKYGSAVKGRATISRDNGQSTVRLQLNNLRAEDTGTYFCAKAFGNNYRRIYAGQIDAWGHGTEVIVSS
notes: Chicken-derived clone used as a control; the four lead clones were tested as scFv-human IgG1 Fc; also called MAb AB101
For the molecule B1, the “% of binding to wild type GLUT4” value stood at 64% with hsGLUT4 Y309A, 110% in the test with hsGLUT4 Y309I and 96% with hsGLUT4 E345Q.

B2: AB111 (Fc fusion)
scFv: ALTQPSSVSANPGETVKITCSGSGSWYGWFQQKSPGSAPVTVIYSNDKRPSDIPSRFSGSKSGSTSTLTITGVQVEDEAVYYCGNWDIFGAGTTLTVLGQSSRSSGGGGSSGGGGSAVTLDESGGGLQTPGGALSLVCKASGFTFSSHGMGWVRQAPGKGLEWVASISTGRYTFYAPAVKGRATISRDNGQSTVRLQLNNLRAEDTATYYCTKCAGLNGCGGGEIDAWGHGTEVIVSS
notes: Bivalent scFv-Fc; also called MAb AB111; not shown: Fc fragment of human IgG1, cloned in frame with the scFv
Broadly, the Kd is the equilibrium constant for the complex coming apart. Lower therefore signals tighter binding. In turn, B2 showed a dissociation constant Kd in test [1] of 0.56 nM. In addition, the “% of binding to wild type GLUT4” value with hsGLUT4 Y309A was determined as 110%; in the test with hsGLUT4 Y309I, 154%; with hsGLUT4 E345Q, 125%.

B3: AB105 (Fc fusion)
scFv: ALTQPSSVSANPGETVEITCSGDSSYYGWYQQKSPGSAPVTVIYANTNRPSDIPSRFSGSASGSTATLTITGVQAEDEAVYYCGSADSTYAGIFGAGTTLTVLGQSSRSSGGGGSSGGGGSAVTLDESGGGLQTPGGALSLICKASGFTFSSYTMNWVRQAPGKGLEWVGVISNSGRTTNYGAAVQGRATISRDNGQSTVRLQLNNLRAEDTGTYYCAKSSASASCAWWAGRSYPCSANRIDAWGHGTEVIVSS
notes: Bivalent scFv-Fc; also called MAb AB105; not shown: Fc fragment of human IgG1, cloned in frame with the scFv
Regarding B3, in the test with hsGLUT4 E345Q, the % of binding to wild type GLUT4 is 16%.

B4: AB108 (Fc fusion)
scFv: ALTQPSSVSANLGGTVKITCSGSSGSYGWYQQKAPGSAPVTLIYRNDKRPSDIPSRFSGSESGSTGTLTITGVQAEDEAVYFCGGYDSSAGYAAFGAGTTLTVLGQSSRSSGGGGSSGGGGSAVTLDESGGGLQTPGGALSLVCKASGFTFSSHGMGWVRQAPGKGLEWVGSISTGRYTFYAPAVKGRATISRDNGQSTLRLQLNNLRAEDTGTYYCTKCAGLNGCGGGEIDAWGHGTEVIVSS
notes: Bivalent scFv-Fc; also called MAb AB108; not shown: Fc fragment of human IgG1, cloned in frame with the scFv
Turning to B4, the Kd in test [1] stood at 1.8 nM. The results for the “% of binding to wild type GLUT4” value with hsGLUT4 Y309A, with hsGLUT4 Y309I and with hsGLUT4 E345Q were 91%, 67% and 78%, respectively.

Values taken from patent publication US20210238276A1 (INTEGRAL MOLECULAR, published 2021).
